Inhibition of infection by HCVpp of genotypes 1a and 1b, target cells pre-incubated with 30 µg/ml antibody data for one substance are collected here from patent US20060222661A1.

A value given as a limit tells only on which side of the number the result lay.

In this experiment the target is human CD81 (on Huh-7 cells and human primary hepatocytes) (human) (UniProt P60033). Briefly: cell-based or functional assay.
Chain of human CD81 (on Huh-7 cells and human primary hepatocytes) (human) (P60033 whole entry): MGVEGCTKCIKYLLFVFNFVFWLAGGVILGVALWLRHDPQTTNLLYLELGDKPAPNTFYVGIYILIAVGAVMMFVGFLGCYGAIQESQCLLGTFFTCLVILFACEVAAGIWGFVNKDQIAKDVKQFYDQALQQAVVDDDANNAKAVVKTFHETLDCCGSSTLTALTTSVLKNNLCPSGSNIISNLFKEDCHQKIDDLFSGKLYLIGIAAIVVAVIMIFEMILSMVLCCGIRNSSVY

Substance “JS-81 anti-CD81 monoclonal antibody (Pharmingen)” gave an inhibition of infection by HCVpp of genotypes 1a and 1b, target cells pre-incubated with 30 µg/ml antibody of more than 90%.
